Measurements from patent US11325966.

Tests used:
Experiment in all cases: cell-based or functional assay
[1] = molecular target: HIV-1 Env of pseudovirus CNE17 (HIV-1)
[2] = molecular target: HIV-1 Env of pseudovirus CNE52 (HIV-1)
[3] = molecular target: HIV-1 Env of pseudovirus Du172.17 (HIV-1)
[4] = molecular target: HIV-1 Env of pseudovirus 1056_10_TA11_1826 (HIV-1)
[5] = molecular target: HIV-1 Env of pseudovirus P0402_c2_11 (HIV-1)
[6] = molecular target: HIV-1 Env of pseudovirus 6952.v1.c20 (HIV-1)
[7] = molecular target: HIV-1 Env of pseudovirus 620345.c01 (HIV-1)
[8] = molecular target: HIV-1 Env of pseudovirus 191084 B7-19 (HIV-1)
[9] = molecular target: HIV-1 Env of pseudovirus 6041.v3.c23 (HIV-1)
[10] = molecular target: HIV-1 Env of pseudovirus PVO.4 (HIV-1)
[11] = molecular target: HIV-1 Env of pseudovirus HIV-16845-2.22 (HIV-1)
[12] = molecular target: HIV-1 Env of pseudovirus Q769.d22 (HIV-1)
[13] = molecular target: HIV-1 Env of pseudovirus CNE19 (HIV-1)
[14] = molecular target: HIV-1 Env of pseudovirus 0815.v3.c3 (HIV-1)
[15] = molecular target: HIV-1 Env of pseudovirus BJOX009000.02.4 (HIV-1)
[16] = molecular target: HIV-1 Env of pseudovirus 249M B10 (HIV-1)
[17] = molecular target: HIV-1 Env of pseudovirus 3365.v2.c2 (HIV-1)
[18] = molecular target: HIV-1 Env of pseudovirus ZM214M.PL15 (HIV-1)
[19] = molecular target: HIV-1 Env of pseudovirus T255-34 (HIV-1)
[20] = molecular target: HIV-1 Env of pseudovirus 6240_08_TA5_4622 (HIV-1)
[21] = molecular target: HIV-1 Env of pseudovirus Ce703010054_2A2 (HIV-1)
[22] = molecular target: HIV-1 Env of pseudovirus Du422.1 (HIV-1)
[23] = molecular target: HIV-1 Env of pseudovirus Q259.d2.17 (HIV-1)
[24] = molecular target: HIV-1 Env of pseudovirus 9004SS_A3_4 (HIV-1)
[25] = molecular target: HIV-1 Env of pseudovirus T257-31 (HIV-1)
[26] = molecular target: HIV-1 Env of pseudovirus Ce0682_E4 (HIV-1)
[27] = molecular target: HIV-1 Env of pseudovirus HIV-001428-2.42 (HIV-1)
[28] = molecular target: HIV-1 Env of pseudovirus CNE21 (HIV-1)
[29] = molecular target: HIV-1 Env of pseudovirus 263-8 (HIV-1)
[30] = molecular target: HIV-1 Env of pseudovirus 211-9 (HIV-1)
[31] = molecular target: HIV-1 Env of pseudovirus BJOX015000.11.5 (HIV-1)
[32] = molecular target: HIV-1 Env of pseudovirus CNE8 (HIV-1)
[33] = molecular target: HIV-1 Env of pseudovirus 6540.v4.c1 (HIV-1)
[34] = molecular target: HIV-1 Env of pseudovirus HIV-0013095-2.11 (HIV-1)
[35] = molecular target: HIV-1 Env of pseudovirus 3301.v1.c24 (HIV-1)
[36] = molecular target: HIV-1 Env of pseudovirus SC05_8C11_2344 (HIV-1)
[37] = molecular target: HIV-1 Env of pseudovirus T250-4 (HIV-1)
[38] = molecular target: HIV-1 Env of pseudovirus 246F C1G (HIV-1)
[39] = molecular target: HIV-1 Env of pseudovirus 3415.v1.c1 (HIV-1)
[40] = molecular target: HIV-1 Env of pseudovirus ZM109F.PB4 (HIV-1)

## BG18 IgG (354BG18) (antibody)
[1]
  IC50 in TZM-bl assay: 0.02 µg/mL
  IC80 in TZM-bl assay: 0.109 µg/mL
[2]
  IC50 in TZM-bl assay: 0.012 µg/mL
  IC80 in TZM-bl assay: 0.045 µg/mL
[3]
  IC50 in TZM-bl assay: > 30 µg/mL
  IC80 in TZM-bl assay: > 30 µg/mL
[4]
  IC50 in TZM-bl assay: 0.007 µg/mL
  IC80 in TZM-bl assay: 0.045 µg/mL
[5]
  IC50 in TZM-bl assay: 0.005 µg/mL
  IC80 in TZM-bl assay: 0.029 µg/mL
[6]
  IC50 in TZM-bl assay: 0.005 µg/mL
  IC80 in TZM-bl assay: 0.011 µg/mL
[7]
  IC50 in TZM-bl assay: > 30 µg/mL
  IC80 in TZM-bl assay: > 30 µg/mL
[8]
  IC50 in TZM-bl assay: 0.011 µg/mL
  IC80 in TZM-bl assay: 0.043 µg/mL
[9]
  IC50 in TZM-bl assay: > 30 µg/mL
  IC80 in TZM-bl assay: > 30 µg/mL
[10]
  IC50 in TZM-bl assay: 0.003 µg/mL
  IC80 in TZM-bl assay: 0.013 µg/mL
[11]
  IC50 in TZM-bl assay: 0.019 µg/mL
  IC80 in TZM-bl assay: 0.09 µg/mL
[12]
  IC50 in TZM-bl assay: > 30 µg/mL
  IC80 in TZM-bl assay: > 30 µg/mL
[13]
  IC50 in TZM-bl assay: > 30 µg/mL
  IC80 in TZM-bl assay: > 30 µg/mL
[14]
  IC50 in TZM-bl assay: 0.16 µg/mL
  IC80 in TZM-bl assay: 5.96 µg/mL
[15]
  IC50 in TZM-bl assay: 24.4 µg/mL
  IC80 in TZM-bl assay: > 30 µg/mL
[16]
  IC50 in TZM-bl assay: > 30 µg/mL
  IC80 in TZM-bl assay: > 30 µg/mL
[17]
  IC50 in TZM-bl assay: 0.013 µg/mL
  IC80 in TZM-bl assay: 0.037 µg/mL
[18]
  IC50 in TZM-bl assay: > 30 µg/mL
  IC80 in TZM-bl assay: > 30 µg/mL
[19]
  IC50 in TZM-bl assay: > 30 µg/mL
  IC80 in TZM-bl assay: > 30 µg/mL
[20]
  IC50 in TZM-bl assay: 0.003 µg/mL
  IC80 in TZM-bl assay: 0.01 µg/mL
[21]
  IC50 in TZM-bl assay: > 30 µg/mL
  IC80 in TZM-bl assay: > 30 µg/mL
[22]
  IC50 in TZM-bl assay: 0.009 µg/mL
  IC80 in TZM-bl assay: 0.057 µg/mL
[23]
  IC50 in TZM-bl assay: > 30 µg/mL
  IC80 in TZM-bl assay: > 30 µg/mL
[24]
  IC50 in TZM-bl assay: 0.005 µg/mL
  IC80 in TZM-bl assay: 0.056 µg/mL
[25]
  IC50 in TZM-bl assay: > 30 µg/mL
  IC80 in TZM-bl assay: > 30 µg/mL
[26]
  IC50 in TZM-bl assay: > 30 µg/mL
  IC80 in TZM-bl assay: > 30 µg/mL
[27]
  IC50 in TZM-bl assay: 0.004 µg/mL
  IC80 in TZM-bl assay: 0.021 µg/mL
[28]
  IC50 in TZM-bl assay: 0.002 µg/mL
  IC80 in TZM-bl assay: 0.007 µg/mL
[29]
  IC50 in TZM-bl assay: 1.38 µg/mL
  IC80 in TZM-bl assay: 7.55 µg/mL
[30]
  IC50 in TZM-bl assay: 1.3 µg/mL
  IC80 in TZM-bl assay: 5.53 µg/mL
[31]
  IC50 in TZM-bl assay: > 30 µg/mL
  IC80 in TZM-bl assay: > 30 µg/mL
[32]
  IC50 in TZM-bl assay: > 30 µg/mL
  IC80 in TZM-bl assay: > 30 µg/mL
[33]
  IC50 in TZM-bl assay: 28.2 µg/mL
  IC80 in TZM-bl assay: > 30 µg/mL
[34]
  IC50 in TZM-bl assay: 10.5 µg/mL
  IC80 in TZM-bl assay: 30 µg/mL
[35]
  IC50 in TZM-bl assay: 0.025 µg/mL
  IC80 in TZM-bl assay: 0.082 µg/mL
[36]
  IC50 in TZM-bl assay: 0.003 µg/mL
  IC80 in TZM-bl assay: 0.016 µg/mL
[37]
  IC80 in TZM-bl assay: 0.006 µg/mL
[38]
  IC50 in TZM-bl assay: 0.034 µg/mL
  IC80 in TZM-bl assay: 0.257 µg/mL
[39]
  IC50 in TZM-bl assay: 0.023 µg/mL
  IC80 in TZM-bl assay: 0.087 µg/mL
[40]
  IC50 in TZM-bl assay: > 30 µg/mL
  IC80 in TZM-bl assay: > 30 µg/mL
